# According to patent US20170190778A1:
# Columns and labels:
# [1] = molecular target: TGFβ receptor on mink lung epithelial cells (MLEC-TGFβ, PAI-1 promoter luciferase reporter) (mink); test: cell-based or functional assay
# [2] = molecular target: TGFβ receptor II (TGFβRII) on IMR90 human lung fibroblasts (human) (UniProt P37173); test: cell-based or functional assay
# Sequence of TGFβ receptor II (TGFβRII) on IMR90 human lung fibroblasts (human) (P37173 23-567): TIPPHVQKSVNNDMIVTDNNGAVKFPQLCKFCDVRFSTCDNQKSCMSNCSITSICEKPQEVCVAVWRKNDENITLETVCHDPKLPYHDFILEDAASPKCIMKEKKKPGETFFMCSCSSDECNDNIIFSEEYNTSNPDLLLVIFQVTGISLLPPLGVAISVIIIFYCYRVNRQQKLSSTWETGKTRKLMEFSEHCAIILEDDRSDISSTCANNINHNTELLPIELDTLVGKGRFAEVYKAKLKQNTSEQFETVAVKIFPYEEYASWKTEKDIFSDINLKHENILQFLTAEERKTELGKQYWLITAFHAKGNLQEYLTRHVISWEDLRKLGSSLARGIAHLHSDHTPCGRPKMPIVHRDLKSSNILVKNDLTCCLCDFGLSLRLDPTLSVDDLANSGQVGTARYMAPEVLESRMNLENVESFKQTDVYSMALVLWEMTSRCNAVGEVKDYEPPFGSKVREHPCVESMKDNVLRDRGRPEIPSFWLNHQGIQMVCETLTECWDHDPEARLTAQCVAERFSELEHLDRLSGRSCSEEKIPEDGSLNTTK
luciferase activity (PAI-1 promoter reporter in MLEC cells) [1] [µg/mL],SMA and collagen protein expression in IMR90 cells (48 h) [2] [nM],"Smad3 phosphorylation in IMR90 cells (Western blot, 30 min) [2] [nM]",Substance
25,30,,"C-terminal discoidin and carboxypeptidase domains of mouse ACLP (amino acids 374-1128, C-terminal myc-His tag) (from UniProt Q640N1 374-1128)"
5,,30,"N-terminal Tsp repeat domain of mouse ACLP (amino acids 26-373, C-terminal myc-His tag) (from UniProt Q640N1 26-373) (ligand)"
